US20230346885A1 (published 2023)
Blank lines part the entries; values can stand above or below the binder they belong to.

What was measured:
Test in all cases: binding, other
HOXB13 peptide on HLA [1] = target: T1, HOXB13 peptide on HLA (human)
T1 peptide: YLDVSVVQT

HTR3A peptide on HLA [2] = target: T2, HTR3A peptide on HLA (human)
T2 peptide: SLAETIFIV

DCAF4L2 peptide on HLA = target: T3, DCAF4L2 peptide on HLA (human)
T3 peptide: ILQDGQFLV

CT45A1 peptide on HLA [3] = target: T4, CT45A1 peptide on HLA (human)
T4 peptide: KIFEMLEGV

CT45A1 peptide on HLA [4] = target: T5, CT45A1 peptide on HLA (human)
T5 peptide: KLVKELRCV

HTR3A peptide on HLA [5] = target: T6, HTR3A peptide on HLA (human)
T6 peptide: AILNVDEKNQV

HOXB13 peptide on HLA [6] = target: T7, HOXB13 peptide on HLA (human)
T7 peptide: SLSERQITI

B1: TCR of SEQ ID NOs 373 and 374 (TCR, V domains shown)
Valpha: KQEVTQIPAALSVPEGENLVLNCSFTDSAIYNLQWFRQDPGKGLTSLLLIQSSQREQTSGRLNASLDKSSGRSTLYIAASQPGDSATYLCAANDPMDSSYKLIFGSGTRLLVRP
Vbeta: NAGVTQTPKFRVLKTGQSMTLLCAQDMNHEYMYWYRQDPGMGLRLIHYSVGEGTTAKGEVPDGYNVSRLKKQNFLLGLESAAPSQTSVYFCASSPLDGWNYGYTFGSGTRLTVV
binding result (HOXB13 peptide on HLA [1]): recognises

B2: TCR of SEQ ID NOs 385 and 386 (TCR, V domains shown)
Valpha: KQEVTQIPAALSVPEGENLVLNCSFTDSAIYNLQWFRQDPGKGLTSLLLIQSSQREQTSGRLNASLDKSSGRSTLYIAASQPGDSATYLCAVLTDSWGKLQFGAGTQVVVTP
Vbeta: NAGVTQTPKFRVLKTGQSMTLLCAQDMNHEYMYWYRQDPGMGLRLIHYSVGEGTTAKGEVPDGYNVSRLKKQNFLLGLESAAPSQTSVYFCASSYWGGNTEAFFGQGTRLTVV
binding result (HTR3A peptide on HLA [2]): recognises

B3: TCR of SEQ ID NOs 359 and 360 (TCR, V domains shown)
Valpha: KQEVTQIPAALSVPEGENLVLNCSFTDSAIYNLQWFRQDPGKGLTSLLLIQSSQREQTSGRLNASLDKSSGRSTLYIAASQPGDSATYLCAVRPTRGDSWGKLQFGAGTQVVVTP
Vbeta: NAGVTQTPKFQVLKTGQSMTLQCAQDMNHNSMYWYRQDPGMGLRLIYYSASEGTTDKGEVPNGYNVSRLNKREFSLRLESAAPSQTSVYFCASSYSLLGNEAFFGQGTRLTVV
binding result (DCAF4L2 peptide on HLA): recognises

B4: TCR of SEQ ID NOs 387 and 388 (TCR, V domains shown)
Valpha: KQEVTQIPAALSVPEGENLVLNCSFTDSAIYNLQWFRQDPGKGLTSLLLIQSSQREQTSGRLNASLDKSSGRSTLYIAASQPGDSATYLCAVSGDSWGKLQFGAGTQVVVTP
Vbeta: NAGVTQTPKFQVLKTGQSMTLQCAQDMNHNSMYWYRQDPGMGLRLIYYSASEGTTDKGEVPNGYNVSRLNKREFSLRLESAAPSQTSVYFCASSYWGPNTEAFFGQGTRLTVV
binding result (HTR3A peptide on HLA [2]): recognises

B5: TCR of SEQ ID NOs 357 and 358 (TCR, V domains shown)
Valpha: KQEVTQIPAALSVPEGENLVLNCSFTDSAIYNLQWFRQDPGKGLTSLLLIQSSQREQTSGRLNASLDKSSGRSTLYIAASQPGDSATYLCAVKVWSNTGKLIFGQGTTLQVKP
Vbeta: NAGVTQTPKFRILKIGQSMTLQCTQDMNHNYMYWYRQDPGMGLKLIYYSVGAGITDKGEVPNGYNVSRSTTEDFPLRLELAAPSQTSVYFCASSYEGDISYGYTFGFGTRLTVV
binding result (CT45A1 peptide on HLA [3]): recognises

B6: TCR of SEQ ID NOs 355 and 356 (TCR, V domains shown)
Valpha: KQEVTQIPAALSVPEGENLVLNCSFTDSAIYNLQWFRQDPGKGLTSLLLIQSSQREQTSGRLNASLDKSSGRSTLYIAASQPGDSATYLCAVWRTTDSWGKLQFGAGTQVVVTP
Vbeta: NAGVTQTPKFRILKIGQSMTLQCTQDMNHNYMYWYRQDPGMGLKLIYYSVGAGITDKGEVPNGYNVSRSTTEDFPLRLLSAAPSQTSVYFCASSYGQGYGYTFGSGTRLTVV
binding result (CT45A1 peptide on HLA [3]): recognises

B7: TCR of SEQ ID NOs 347 and 348 (TCR, V domains shown)
Valpha: KQEVTQIPAALSVPEGENLVLNCSFTDSAIYNLQWFRQDPGKGLTSLLLIQSSQREQTSGRLNASLDKSSGRSTLYIAASQPGDSATYLCAVRTTDSWGKLQFGAGTPVVVTP
Vbeta: NAGVTQTPKFQVLKIGQSMTLQCTQDMNHNYMYWYRQDPGMGLKLIYYSVGAGITDKGEVPNGYNVSRSTTEDFPLRLELAAPSQTSVYFCASSSPLGKQYFGPGTRLTVL
binding result (CT45A1 peptide on HLA [4]): recognises

B8: TCR of SEQ ID NOs 351 and 352 (TCR, V domains shown)
Valpha: KQEVTQIPVALSVPEGENLVLNCSFTDSAIYNLQWFRQDPGKGLTSLLLIQSSQREQTSGRLNASLDKSSGRSTLYIAASQPGDSATYLCALRGEADSWGKLQFGAGTQVVVTP
Vbeta: NAGVTQTPKFQVLKTGQSMTLQCAQDMNHNYMYWYRQDPGMGLKLIYYSVGAGITDKGEVPNGYNVSRSTTEDFPLRLELAAPSQTSVYFCASSSPLGEQYFGPGTRLTVT
binding result (CT45A1 peptide on HLA [4]): recognises

B9: TCR of SEQ ID NOs 381 and 382 (TCR, V domains shown)
Valpha: KQEVTQIPAALSVPEGENLVLNCSFTDSAIYNLQWFRQDPGKGLTSLLLIQSSQREQTSGRLNASLDKSSGRSTLYIAASQPGDSATYLCAVRPADSWGKLQFGAGTQVVVTP
Vbeta: NAGVTQTPKFRILKIGQSMTLQCTQDMNHNYMYWYRQDPGMGLKLIYYSVGAGITDKGEVPNGYNVSRSTTEDFPLRLELAAPSQTSVYFCASSYSLGELFFGEGSRLTVL
binding result (HTR3A peptide on HLA [5]): recognises

B10: TCR of SEQ ID NOs 383 and 384 (TCR, V domains shown)
Valpha: KQEVTQIPAALSVPEGENLVLNCSFTDSAIYNLQWFRQDPGKGLTSLLLIQSSQREQTSGRLNASLDKSSGRSTLYIAASQPGDSATYLCAVLTTDSWGKLQFGAGTQVVVTP
Vbeta: NAGVTQTPKFRILKIGQSMTLQCTQDMNHNSMYWYRQDPGMGLRLIYYSASEGTTDKGEVPNGYNVSRLNKREFSLRLESAAPSQTSVYFCASSELIGTVDYSNQPQHFGDGTRLSIL
binding result (HTR3A peptide on HLA [2]): recognises

B11: TCR of SEQ ID NOs 349 and 350 (TCR, V domains shown)
Valpha: KQEVTQIPAALSVPEGENLVLNCSFTDSAIYNLQWFRQDPGKGLTSLLLIQSSQREQTSGRLNASLDKSSGRSTLYIAASQPGDSATYLCAVTNAGKSTFGDGTTLTVKP
Vbeta: NAGVTQTPKFQVLKTGQSMTLQCAQDMNHEYMSWYRQDPGMGLRLIHYSVGAGITDQGEVPNGYNVSRSTTEDFPLRLESAAPSQTSVYFCASSEVPGPYGYTFGSGTRLTVV
binding result (CT45A1 peptide on HLA [4]): recognises

Second part, the binder after the results:

binding result (HOXB13 peptide on HLA [6]): recognises
B12: TCR of SEQ ID NOs 365 and 366 (TCR, V domains shown)
Valpha: KQEVTQIPAALSVPEGENLVLNCSFTDSAIYNLQWFRQDPGKGLTSLLLIQSSQREQTSGRLNASLDKSSGRSTLYIAASQPGDSATYLCAVGGYNKLIFGAGTRLAVHP
Vbeta: NAGVTQTPKFQVLKTGQSMTLQCAQDMNHNSMYWYRQDPGMGLRLIYYSASEGTTDKGEVPNGYNVSRSTTEDFPLRLLSAAPSQTSVYFCASSYQGTGELFFGEGSRLTVL

binding result (HOXB13 peptide on HLA [6]): recognises
B13: TCR of SEQ ID NOs 369 and 370 (TCR, V domains shown)
Valpha: KQEVTQIPAALSVPEGENLVLNCSFTDSAIYNLQWFRQDPGKGLTSLLLIQSSQREQTSGRLNASLDKSSGRSTLYIAASQPGDSATYLCAVGGYQKVTFGTGTKLQVIP
Vbeta: NAGVTQTPKFQVLKTGQSMTLQCAQDMNHNSMYWYRQDPGMGLRLIYYSASEGTTDKGEVPNGYNVSRSTTEDFPLRLLSAAPSQTSVYFCASSYQGGNEKLFFGSGTQLSVL

binding result (HOXB13 peptide on HLA [1]): recognises
B14: TCR of SEQ ID NOs 375 and 376 (TCR, V domains shown)
Valpha: KQEVTQIPAALSVPEGENLVLNCSFTDSAIYNLQWFRQDPGKGLTSLLLIQSSQREQTSGRLNASLDKSSGRSTLYIAASQPGDSATYLCAVRHDYKLSFGAGTTVTVRA
Vbeta: NAGVTQTPKFQVLKTGQSMTLQCAQDMNHEYMSWYRQDPGMGLRLIHYSVGAGITDQGEVPNGYNVSRSTTEDFPLRLLSAAPSQTSVYFCASSRIGQRASFFGSGTRLTVV

binding result (HTR3A peptide on HLA [5]): recognises
B15: TCR of SEQ ID NOs 379 and 380 (TCR, V domains shown)
Valpha: KQEVTQIPAALSVPEGENLVLNCSFTDSAIYNLQWFRQDPGKGLTSLLLIQSSQREQTSGRLNASLDKSSGRSTLYIAASQPGDSATYLCAVSPFDLYGQNFVFGPGTRLSVLP
Vbeta: NAGVTQTPKFQVLKTGQSMTLQCAQDMNHNSMYWYRQDPGMGLRLIYYSASEGTTDKGEVPNGYNVSRLNKREFSLRLESAAPSQTSVYFCASRGTLFDPQHFGDGTRLSIL

binding result (CT45A1 peptide on HLA [3]): recognises
B16: TCR of SEQ ID NOs 353 and 354 (TCR, V domains shown)
Valpha: QKEVEQNSGPLSVPEGAIASLNCTYSDRGSQSFFWYRQYSGKSPELIMSIYSNGDKEDGRFTAQLNKASQYVSLLIRDSQPSDSATYLCAVNYRGALTFGSGTRLQVQP
Vbeta: NAGVTQTPKFRILKIGQSMTLQCTQDMNHNYMYWYRQDPGMGLKLIYYSVGAGITDQGEVPNGYNVSRSTTEDFPLRLLSAAPSQTSVYFCASSYLRTGGNYGYTFGSGTRLTVV

binding result (DCAF4L2 peptide on HLA): recognises
B17: TCR of SEQ ID NOs 361 and 362 (TCR, V domains shown)
Valpha: KQEVTQIPAALSVPEGENLVLNCSFTDSAIYNLQWFRQDPGKGLTSLLLIQSSQREQTSGRLNASLDKSSGRSTLYIAASQPGDSATYLCAVDTGRRALTFGSGTRLQVQP
Vbeta: NAGVTQTPKFQVLKTGQSMTLQCAQDMNHEYMYWYRQDPGMGLRLIHYSVGEGTTAKGEVPDGYNVSRLKKQNFLLGLESAAPSQTSVYFCASRDQINEKLFFGSGTQLSVL

binding result (DCAF4L2 peptide on HLA): recognises
B18: TCR of SEQ ID NOs 363 and 364 (TCR, V domains shown)
Valpha: KQEVTQIPAALSVPEGENLVLNCSFTDSAIYNLQWFRQDPGKGLTSLLLIQSSQREQTSGRLNASLDKSSGRSTLYIAASQPGDSATYLCAVNLGAQKLVFGQGTRLTINP
Vbeta: NAGVTQTPKFRILKIGQSMTLQCTQDMNHNYMYWYRQDPGMGLKLIYYSVGAGITDKGEVPNGYNVSRSTTEDFPLRLELAAPSQTSVYFCASSSFDRDEAFFGQGTKLTVV

binding result (HOXB13 peptide on HLA [6]): recognises
B19: TCR of SEQ ID NOs 367 and 368 (TCR, V domains shown)
Valpha: KQEVTQIPAALSVPEGENLVLNCSFTDSAIYNLQWFRQDPGKGLTSLLLIQSSQREQTSGRLNASLDKSSGRSTLYIAASQPGDSATYLCAVRPHGQNFVFGPGTRLSVLP
Vbeta: NAGVTQTPKFRVLKTGQSMTLLCAQDMNHEYMYWYRQDPGMGLRLIHYSVGEGTTDKGEVPNGYNVSRLNKREFSLRLESAAPSQTSVYFCASSSLARETQYFGPGTRLLVL

binding result (HOXB13 peptide on HLA [1]): recognises
B20: TCR of SEQ ID NOs 371 and 372 (TCR, V domains shown)
Valpha: KQEVTQIPAALSVPEGENLVLNCSFTDSAIYNLQWFRQDPGKGLTSLLLIQSSQREQTSGRLNASLDKSSGRSTLYIAASQPGDSATYLCAVRHDYQLSFGAGTTVTVRA
Vbeta: NAGVTQTPKFQVLKTGQSMTLQCAQDMNHEYMSWYRQDPGMGLRLIHYSVGAGITDQGEVPNGYNVSRSTTEDFPLRLLSAAPSQTSVYFCASSRIGQRASFFGSGTRLTVV

binding result (HTR3A peptide on HLA [5]): recognises
B21: TCR of SEQ ID NOs 377 and 378 (TCR, V domains shown)
Valpha: KQEVTQIPVALSVPEGENLVLNCSFTDSAIYNLQWFRQDPGKGLTSLLLIQSSQREQTSGRLNASLDKSSGRSTLYIAASQPGDSATYLCAVTDSWGKLQFGAGTQVVVTP
Vbeta: NAGVTQTPKFQVLKTGQSMTLQCAQDMNHNSMYWYRQDPGMGLRLIYYSASEGTTDKGEVPNGYNVSRLNKREFSLRLESAAPSQTSLYFCASSEGPADTYGYTFGSGTRLTVV
